Measurements from patent publication US11440969B2, “Use of human epididymis protein 4 (HE4) for assessing responsiveness of MUC 16-positive cancer treatment” (Genentech, Inc., priority 2016, dated 2022).

Experiment: Safety of DMUC5754A in patients: related adverse events, DLT, MTD/RP2D (NCI CTCAE v4.0)
Format: in vivo, human
Settings: for Median time to onset of first PN on study / On study PN = No, patients n (%) / On study PN = Yes, patients n (%): q3w dosing
Description: This multicenter, open-label, dose-escalation study was designed to identify the recommended Phase II dose (RP2D) of DMUC5754A in patients with platinum-resistant OC or unresectable pancreatic cancer. In the single-agent dose escalation stage utilizing a 3+3 enrollment scheme, patients were given intravenous DMUC5754A (Genentech Inc.) 0.3-3.2 mg/kg every 3 weeks (q3w) to evaluate the safety, tolerability, and pharmacokinetics of DMUC5754A. Following determination of the maximum tolerated dose (MTD), dose-expansion cohorts were enrolled at the RP2D of 2.4 mg/kg to further characterize the safety and preliminary clinical efficacy of DMUC5754A.
Dosing on a weekly (qlw) schedule was also evaluated at the RP2D, employing a 3+3 design to determine the MTD of weekly dosing, followed by a cohort expansion to further characterize the safety and activity of q1w dosing.
Safety was evaluated according to NCI CTCAE v4.0. […] The maximum tolerated dose (MTD) was defined as the dose at which ≤1 of 6 patients at an assigned dose with protocol-defined DLT. Patients who experienced a DLT or adverse event (AE) meeting DLT criteria after the DLT assessment window were allowed to delay dosing for up to 2 weeks or undergo a dose reduction.

[1] = q3w patients, over all dose levels

B1: DMUC5754A: antibody-drug conjugate: humanized IgG1 anti-MUC16 monoclonal antibody and MMAE, linked through protease labile linker maleimidocaproyl-valine-citrulline-p-aminobenzyloxycarbonyl (conjugate, chains of the INN, looked up)
VH: EVQLVESGGGLVQPGGSLRLSCAASGYSITNDYAWNWVRQAPGKGLEWVGYISYSGYTTYNPSLKSRFTISRDTSKNTLYLQMNSLRAEDTAVYYCARWTSGLDYWGQGTLVTVSS
VL: DIQMTQSPSSLSASVGDRVTITCKASDLIHNWLAWYQQKPGKAPKLLIYGATSLETGVPSRFSGSGSGTDFTLTISSLQPEDFATYYCQQYWTTPFTFGQGTKVEIK
modifications: MMAE via mc-vc-PABC linker
Pyrexia (related AE), patients (q3w 0.3 mg/kg (n = 3)): 0 | Vomiting (related AE), patients (q3w 0.3 mg/kg (n = 3)): 0 | Alopecia (related AE), patients (q3w 0.6 mg/kg (n = 3)): 0 | Any adverse events (related), patients (q3w 0.6 mg/kg (n = 3)): 1 | Arthralgia (related AE), patients (q3w 0.6 mg/kg (n = 3)): 0 | Asthenia (related AE), patients (q3w 0.6 mg/kg (n = 3)): 0 | Decreased appetite (related AE), patients (q3w 0.6 mg/kg (n = 3)): 0 | Diarrhea (related AE), patients (q3w 0.6 mg/kg (n = 3)): 1 | Dysgeusia (related AE), patients (q3w 0.6 mg/kg (n = 3)): 0 | Fatigue (related AE), patients (q3w 0.6 mg/kg (n = 3)): 1 | Hypokalemia (related AE), patients (q3w 0.6 mg/kg (n = 3)): 0 | Hypomagnesaemia (related AE), patients (q3w 0.6 mg/kg (n = 3)): 0 | Hypophosphatemia (related AE), patients (q3w 0.6 mg/kg (n = 3)): 0 | Nausea (related AE), patients (q3w 0.6 mg/kg (n = 3)): 0 | Neutropenia (related AE), patients (q3w 0.6 mg/kg (n = 3)): 0 | Peripheral neuropathy (related AE), patients (q3w 0.6 mg/kg (n = 3)): 0 | Pyrexia (related AE), patients (q3w 0.6 mg/kg (n = 3)): 0 | Vomiting (related AE), patients (q3w 0.6 mg/kg (n = 3)): 1 | Alopecia (related AE), patients (q3w 1.2 mg/kg (n = 3)): 0 | Any adverse events (related), patients (q3w 1.2 mg/kg (n = 3)): 3 | Arthralgia (related AE), patients (q3w 1.2 mg/kg (n = 3)): 0 | Asthenia (related AE), patients (q3w 1.2 mg/kg (n = 3)): 0 | Decreased appetite (related AE), patients (q3w 1.2 mg/kg (n = 3)): 2 | Diarrhea (related AE), patients (q3w 1.2 mg/kg (n = 3)): 1 | Dysgeusia (related AE), patients (q3w 1.2 mg/kg (n = 3)): 0 | Fatigue (related AE), patients (q3w 1.2 mg/kg (n = 3)): 1 | Hypokalemia (related AE), patients (q3w 1.2 mg/kg (n = 3)): 0 | Hypomagnesaemia (related AE), patients (q3w 1.2 mg/kg (n = 3)): 0 | Hypophosphatemia (related AE), patients (q3w 1.2 mg/kg (n = 3)): 0 | Nausea (related AE), patients (q3w 1.2 mg/kg (n = 3)): 0 | Neutropenia (related AE), patients (q3w 1.2 mg/kg (n = 3)): 0 | Peripheral neuropathy (related AE), patients (q3w 1.2 mg/kg (n = 3)): 0 | Pyrexia (related AE), patients (q3w 1.2 mg/kg (n = 3)): 0 | Vomiting (related AE), patients (q3w 1.2 mg/kg (n = 3)): 1 | Alopecia (related AE), patients (q3w 1.8 mg/kg (n = 3)): 1 | Any adverse events (related), patients (q3w 1.8 mg/kg (n = 3)): 2 | Arthralgia (related AE), patients (q3w 1.8 mg/kg (n = 3)): 2 | Asthenia (related AE), patients (q3w 1.8 mg/kg (n = 3)): 0 | Decreased appetite (related AE), patients (q3w 1.8 mg/kg (n = 3)): 1 | Diarrhea (related AE), patients (q3w 1.8 mg/kg (n = 3)): 2 | Dysgeusia (related AE), patients (q3w 1.8 mg/kg (n = 3)): 0 | Fatigue (related AE), patients (q3w 1.8 mg/kg (n = 3)): 1 | Hypokalemia (related AE), patients (q3w 1.8 mg/kg (n = 3)): 0 | Hypomagnesaemia (related AE), patients (q3w 1.8 mg/kg (n = 3)): 2 | Hypophosphatemia (related AE), patients (q3w 1.8 mg/kg (n = 3)): 1 | Nausea (related AE), patients (q3w 1.8 mg/kg (n = 3)): 1 | Neutropenia (related AE), patients (q3w 1.8 mg/kg (n = 3)): 0 | Peripheral neuropathy (related AE), patients (q3w 1.8 mg/kg (n = 3)): 2 | Pyrexia (related AE), patients (q3w 1.8 mg/kg (n = 3)): 2 | Vomiting (related AE), patients (q3w 1.8 mg/kg (n = 3)): 0 | Alopecia (related AE), patients (q3w 2.4 mg/kg (n = 39)): 9 | Any adverse events (related), patients (q3w 2.4 mg/kg (n = 39)): 39 | Arthralgia (related AE), patients (q3w 2.4 mg/kg (n = 39)): 5 | Asthenia (related AE), patients (q3w 2.4 mg/kg (n = 39)): 5 | Decreased appetite (related AE), patients (q3w 2.4 mg/kg (n = 39)): 11 | Diarrhea (related AE), patients (q3w 2.4 mg/kg (n = 39)): 8 | Dysgeusia (related AE), patients (q3w 2.4 mg/kg (n = 39)): 7 | Fatigue (related AE), patients (q3w 2.4 mg/kg (n = 39)): 26 | Hypokalemia (related AE), patients (q3w 2.4 mg/kg (n = 39)): 4 | Hypomagnesaemia (related AE), patients (q3w 2.4 mg/kg (n = 39)): 6 | Hypophosphatemia (related AE), patients (q3w 2.4 mg/kg (n = 39)): 2 | Nausea (related AE), patients (q3w 2.4 mg/kg (n = 39)): 15 | Neutropenia (related AE), patients (q3w 2.4 mg/kg (n = 39)): 8 | Peripheral neuropathy (related AE), patients (q3w 2.4 mg/kg (n = 39)): 17 | Pyrexia (related AE), patients (q3w 2.4 mg/kg (n = 39)): 7 | Vomiting (related AE), patients (q3w 2.4 mg/kg (n = 39)): 10 | Alopecia (related AE), patients (q3w 3.2 mg/kg (n = 3)): 1 | Any adverse events (related), patients (q3w 3.2 mg/kg (n = 3)): 3 | Arthralgia (related AE), patients (q3w 3.2 mg/kg (n = 3)): 1 | Asthenia (related AE), patients (q3w 3.2 mg/kg (n = 3)): 1 | Decreased appetite (related AE), patients (q3w 3.2 mg/kg (n = 3)): 1 | Diarrhea (related AE), patients (q3w 3.2 mg/kg (n = 3)): 1 | Dysgeusia (related AE), patients (q3w 3.2 mg/kg (n = 3)): 1 | Fatigue (related AE), patients (q3w 3.2 mg/kg (n = 3)): 2 | Hypokalemia (related AE), patients (q3w 3.2 mg/kg (n = 3)): 2 | Hypomagnesaemia (related AE), patients (q3w 3.2 mg/kg (n = 3)): 0 | Hypophosphatemia (related AE), patients (q3w 3.2 mg/kg (n = 3)): 3 | Nausea (related AE), patients (q3w 3.2 mg/kg (n = 3)): 3 | Neutropenia (related AE), patients (q3w 3.2 mg/kg (n = 3)): 1 | Peripheral neuropathy (related AE), patients (q3w 3.2 mg/kg (n = 3)): 1 | Pyrexia (related AE), patients (q3w 3.2 mg/kg (n = 3)): 2 | Vomiting (related AE), patients (q3w 3.2 mg/kg (n = 3)): 3 | Alopecia (related AE), patients (q3w All Patients (n = 54)): 11 | Any adverse events (related), patients (q3w All Patients (n = 54)): 51 | Arthralgia (related AE), patients (q3w All Patients (n = 54)): 8 | Asthenia (related AE), patients (q3w All Patients (n = 54)): 6 | Decreased appetite (related AE), patients (q3w All Patients (n = 54)): 16 | Diarrhea (related AE), patients (q3w All Patients (n = 54)): 13 | Dysgeusia (related AE), patients (q3w All Patients (n = 54)): 8 | Fatigue (related AE), patients (q3w All Patients (n = 54)): 31 | Hypokalemia (related AE), patients (q3w All Patients (n = 54)): 6 | Hypomagnesaemia (related AE), patients (q3w All Patients (n = 54)): 9 | Hypophosphatemia (related AE), patients (q3w All Patients (n = 54)): 6 | Nausea (related AE), patients (q3w All Patients (n = 54)): 20 | Neutropenia (related AE), patients (q3w All Patients (n = 54)): 9 | Peripheral neuropathy (related AE), patients (q3w All Patients (n = 54)): 21 | Pyrexia (related AE), patients (q3w All Patients (n = 54)): 11 | Vomiting (related AE), patients (q3w All Patients (n = 54)): 15 | patients with AEs leading to treatment discontinuation (q3w cohorts, 3/54 patients): 5.6% | Median time to onset of first PN on study (Prior neuropathy = No): 71 days | On study PN = No, patients n (%) (Prior neuropathy = No): 11 (20%) | On study PN = Yes, patients n (%) (Prior neuropathy = No): 18 (33%) | Median time to onset of first PN on study (Prior neuropathy = Yes): 148 days | On study PN = No, patients n (%) (Prior neuropathy = Yes): 20 (37%) | On study PN = Yes, patients n (%) (Prior neuropathy = Yes): 5 (9%) | Median time to onset of first PN on study (Total): 99 days | On study PN = No, patients n (%) (Total): 31 (57%) | On study PN = Yes, patients n (%) (Total): 23 (43%) | Drug-related SAE hypocalcemia, patients (q3w patients): 1 | Drug-related SAE neutropenia, patients (q3w patients): 1 | Drug-related SAE small intestine obstruction, patients (q3w patients): 2 | alopecia, related AE [1]: 20.4% | decreased appetite, related AE [1]: 29.6% | diarrhea, related AE [1]: 24.1% | fatigue, related AE [1]: 57.4% | nausea, related AE [1]: 37.0% | peripheral sensory neuropathy, related AE [1]: 27.8% | pyrexia, related AE [1]: 20.4% | vomiting, related AE [1]: 27.8% | Grade ≥3 related fatigue (q3w patients, total): 7.4% | Grade ≥3 related neutropenia (q3w patients, total): 9.3% | RP2D (q3w schedule): 2.4 mg/kg | Grade ≥3 related fatigue, patients (q3w, at 2.4 mg/kg): 4 | Grade ≥3 related neutropenia, patients (q3w, at 2.4 mg/kg): 4
